Data taken from patent CN114075552A (MEDX TRANSLATIONAL MEDICINE CO LTD, dated 2022).
One block for each binder: values may come before it.

How the values were obtained:
[1] = biological target: T1, 真核表达的人FGL1重组蛋白 (human FGL1 Leu23-Ile312 with C-terminal 6xHis, expressed in 293F cells) (human, UniProt Q08830 23-312); assay: indirect ELISA, antigen coated at 0.5 µg/mL, purified antibody 0.5 µg/mL
T1 construct: also called 真核表达的FGL1蛋白; 真核表达的人FGL1蛋白
T1 sequence: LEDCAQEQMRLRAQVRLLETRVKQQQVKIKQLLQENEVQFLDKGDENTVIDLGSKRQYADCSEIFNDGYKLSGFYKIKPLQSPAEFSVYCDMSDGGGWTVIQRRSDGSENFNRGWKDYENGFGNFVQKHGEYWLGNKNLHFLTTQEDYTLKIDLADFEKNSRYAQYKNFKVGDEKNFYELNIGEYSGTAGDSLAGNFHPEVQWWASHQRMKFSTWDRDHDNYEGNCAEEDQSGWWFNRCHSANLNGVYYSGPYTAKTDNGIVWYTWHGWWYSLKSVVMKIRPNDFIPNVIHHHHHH

[2] = biological target: T2, 原核表达的TF-FGL1融合蛋白 (human FGL1 Leu23-Ile312 fused to trigger factor, pCold TF, expressed in E. coli BL21(DE3)) (human); assay: as above
T2 construct: also called 原核表达的FGL1蛋白; TF-FGL1蛋白
T2 chain: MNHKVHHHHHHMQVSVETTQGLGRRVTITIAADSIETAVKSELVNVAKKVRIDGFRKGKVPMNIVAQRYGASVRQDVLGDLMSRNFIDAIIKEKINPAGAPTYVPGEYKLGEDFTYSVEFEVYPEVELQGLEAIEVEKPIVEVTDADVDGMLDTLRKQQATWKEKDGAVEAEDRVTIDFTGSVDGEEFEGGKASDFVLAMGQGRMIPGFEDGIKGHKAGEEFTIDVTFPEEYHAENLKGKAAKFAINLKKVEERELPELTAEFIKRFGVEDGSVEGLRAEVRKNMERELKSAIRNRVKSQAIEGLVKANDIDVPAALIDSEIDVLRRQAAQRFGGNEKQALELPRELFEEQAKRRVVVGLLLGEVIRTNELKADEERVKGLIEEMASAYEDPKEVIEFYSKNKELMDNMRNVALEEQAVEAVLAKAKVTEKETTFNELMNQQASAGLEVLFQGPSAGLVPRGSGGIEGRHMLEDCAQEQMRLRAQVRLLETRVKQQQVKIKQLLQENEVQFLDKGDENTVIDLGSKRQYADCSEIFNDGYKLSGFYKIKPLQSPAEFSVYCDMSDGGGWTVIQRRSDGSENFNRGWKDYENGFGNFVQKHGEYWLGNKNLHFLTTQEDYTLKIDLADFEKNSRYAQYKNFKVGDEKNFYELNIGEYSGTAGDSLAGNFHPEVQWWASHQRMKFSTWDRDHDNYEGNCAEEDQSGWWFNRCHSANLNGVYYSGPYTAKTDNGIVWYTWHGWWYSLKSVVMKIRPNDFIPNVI

[3] = biological target: T1, 真核表达的人FGL1重组蛋白 (human FGL1 Leu23-Ile312 …); assay: indirect ELISA screen, hybridoma supernatant on coated human FGL1 recombinant protein (0.5 µg/mL)

binding result [1]: binds | binding result [2]: binds
B1: 克隆号为MJ9-4的杂交瘤细胞(CGMCC No.23016)分泌的抗FGL1单克隆抗体 (antibody, mouse IgG1, kappa, V domains shown)
VH: EVKLQQSGAELAKPGASVKMSCKASGYIFTGGWMHWVKQRPGQGLEWIGYINPSTDGTDYNQKFEDKATLTADKSSSTAYMQLSSLTSEDSAVYYCAREGYYGSSPYFDYWGQGTTLTVSS
VL: DIVITQTPATLSVTPGDSVSLSCRASQSVSNNLHWYQQKSHESPRLLIKYVSQSISGIPSRFSGSGSGTDFTLSINSVETEDFGMYFCQQSNSWPLYTFGGGTKLEIKR
notes: also called MJ9-4分泌的单克隆抗体; 第二单克隆抗体

binding result [2]: binds | binding result [3]: binds
B2: 克隆号为MJ9-1的杂交瘤细胞(CGMCC No.23015)分泌的抗FGL1单克隆抗体 (antibody, mouse IgG1, kappa, V domains shown)
VH: EVQLVESGGGLVKPGGSLKLSCAASGFTFSDGYMYWVRQTPEKRLEWVATISDGGSGTYYPDSVKGRFTISRDNAKNNLYLQMSSLKSEDTAMYYCARAATVTRWFAYWGQGTLVTVSA
VL: DIQMNQSPSSLSASLGDTITITCHASYNINVWLTWYQQKPGNIPKLLIYKASKLHTGVPSRFSGSGSGTGFTLTISSLQPEDIATYYCQQGQSYPLTFGGGTKLEIKR
notes: also called MJ9-1分泌的单克隆抗体; 第一单克隆抗体
